Source: patent US20260132178A1

Experiments:
IL10 receptor = IL10 receptor (UniProt Q13651); assay: cell-based or functional assay
IL4 (type II) receptor = IL4 (type II) receptor (UniProt P24394); assay: cell-based or functional assay
Chain of IL4 (type II) receptor (P24394 26-825 limits assumed, chain 1 of 2): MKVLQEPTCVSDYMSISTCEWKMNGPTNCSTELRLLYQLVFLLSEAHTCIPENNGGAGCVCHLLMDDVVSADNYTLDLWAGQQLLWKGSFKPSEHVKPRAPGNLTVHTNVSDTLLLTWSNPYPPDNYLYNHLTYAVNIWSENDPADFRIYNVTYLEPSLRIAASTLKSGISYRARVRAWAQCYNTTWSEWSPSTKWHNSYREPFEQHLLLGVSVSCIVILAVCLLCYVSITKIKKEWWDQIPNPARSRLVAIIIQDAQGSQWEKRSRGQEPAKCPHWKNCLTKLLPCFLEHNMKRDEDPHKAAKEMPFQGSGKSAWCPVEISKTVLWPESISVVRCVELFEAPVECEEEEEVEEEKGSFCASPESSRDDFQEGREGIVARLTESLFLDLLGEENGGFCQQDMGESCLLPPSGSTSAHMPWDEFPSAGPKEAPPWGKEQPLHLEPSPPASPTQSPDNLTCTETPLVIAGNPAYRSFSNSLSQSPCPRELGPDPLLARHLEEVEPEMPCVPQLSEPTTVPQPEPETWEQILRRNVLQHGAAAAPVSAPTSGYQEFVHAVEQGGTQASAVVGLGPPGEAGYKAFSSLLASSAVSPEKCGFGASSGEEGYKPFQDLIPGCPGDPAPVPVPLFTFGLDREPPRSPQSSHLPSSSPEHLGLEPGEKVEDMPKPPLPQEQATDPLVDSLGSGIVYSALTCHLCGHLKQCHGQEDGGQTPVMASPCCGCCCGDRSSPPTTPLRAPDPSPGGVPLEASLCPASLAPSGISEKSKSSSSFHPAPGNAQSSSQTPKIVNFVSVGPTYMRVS
Chain of IL4 (type II) receptor (P78552 22-427 limits assumed, chain 2 of 2, further chain): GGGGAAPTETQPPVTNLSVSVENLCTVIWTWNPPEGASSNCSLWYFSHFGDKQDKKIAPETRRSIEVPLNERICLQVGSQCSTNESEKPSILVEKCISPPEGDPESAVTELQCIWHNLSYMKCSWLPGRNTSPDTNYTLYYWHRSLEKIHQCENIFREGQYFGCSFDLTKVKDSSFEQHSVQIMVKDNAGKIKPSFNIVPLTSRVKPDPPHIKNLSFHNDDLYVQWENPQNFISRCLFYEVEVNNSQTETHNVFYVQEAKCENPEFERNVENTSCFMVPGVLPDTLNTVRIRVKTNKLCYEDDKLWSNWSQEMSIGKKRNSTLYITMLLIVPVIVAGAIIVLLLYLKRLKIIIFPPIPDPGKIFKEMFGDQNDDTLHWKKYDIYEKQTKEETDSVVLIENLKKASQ

Chain of IL10 receptor (Q13651 22-578 limits assumed, chain 1 of 2): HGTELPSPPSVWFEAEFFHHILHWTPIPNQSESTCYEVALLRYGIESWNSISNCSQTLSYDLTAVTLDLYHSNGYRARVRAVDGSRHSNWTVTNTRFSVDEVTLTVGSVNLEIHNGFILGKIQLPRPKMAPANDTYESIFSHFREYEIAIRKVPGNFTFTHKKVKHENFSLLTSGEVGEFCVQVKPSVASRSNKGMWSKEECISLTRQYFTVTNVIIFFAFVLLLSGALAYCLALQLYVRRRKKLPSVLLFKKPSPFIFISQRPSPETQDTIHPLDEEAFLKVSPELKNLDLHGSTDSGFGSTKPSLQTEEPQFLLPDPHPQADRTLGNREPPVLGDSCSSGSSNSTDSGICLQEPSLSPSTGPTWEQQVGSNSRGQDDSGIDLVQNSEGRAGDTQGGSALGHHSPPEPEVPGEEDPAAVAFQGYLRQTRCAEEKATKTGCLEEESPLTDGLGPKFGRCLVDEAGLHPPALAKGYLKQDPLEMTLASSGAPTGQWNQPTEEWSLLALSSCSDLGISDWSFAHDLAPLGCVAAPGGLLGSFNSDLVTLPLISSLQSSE
Chain of IL10 receptor (Q08334 20-325 limits assumed, chain 2 of 2, further chain): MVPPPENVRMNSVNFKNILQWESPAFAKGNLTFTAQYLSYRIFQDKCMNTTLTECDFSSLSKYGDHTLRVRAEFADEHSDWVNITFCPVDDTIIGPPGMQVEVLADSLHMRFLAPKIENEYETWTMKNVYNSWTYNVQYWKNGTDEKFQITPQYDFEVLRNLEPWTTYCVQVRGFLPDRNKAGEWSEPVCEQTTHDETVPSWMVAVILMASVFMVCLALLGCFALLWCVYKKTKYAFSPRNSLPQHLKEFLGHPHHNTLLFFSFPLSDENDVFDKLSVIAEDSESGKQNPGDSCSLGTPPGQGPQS

HEK-Blue IL10 EC50 (STAT-3 mediated SEAP expression) (IL10 receptor) [nM] | HEK-Blue IL4/13 EC50 (STAT6-induced SEAP expression) (IL4 (type II) receptor) [nM] | Substance
0.0264 |  | IL10 (from UniProt P22301 19-178) (ligand)
 | 0.033 | IL13 (from UniProt P35225 33-146) (ligand)
